The results in this text go back to PMC4022648.

For experiment [1], the target named is naïve Hsp60 (human Hsp60 with its mitochondrial import signal) (human) (UniProt P10809). Put plainly: native gel or EMSA; Blue native PAGE, 4-16% Bis-Tris gels, sample buffer with 1% digitonin and 0.5% DDM, pH 7.2, Coomassie G-250; naïve Hsp60 at 1.9-20.7 µM, GroEL at 1.0-18.9 µM. (In EMSA bound probe runs differently from free probe, usually more slowly.)
For experiment [2] the target is unchanged. Briefly: SEC; HPLC size exclusion, Shodex 806 and 804 in series, 24 °C, 20 mM Tris-HCl pH 8 + 10% glycerol; naïve Hsp60 at 0.8-16.0 µM, compared with GroEL at 7.0 µM and BSA.
Experiment [3] shares this target. Put plainly: SAXS; 20 °C, Guinier analysis; naïve Hsp60 at 79.5 µM, GroEL at 52.5 µM.
For experiment [4] the target is unchanged. Briefly: SAXS; 20 °C, Guinier analysis; naïve Hsp60 at 23.8 µM.
The target is the same in experiment [5]. Put plainly: static light scattering; Rayleigh ratio at 90° divided by concentration; naïve Hsp60 at 1.6-47.6 µM; compared with ideal lines for tetradecamer (882 kDa) and heptamer (441 kDa).

Values joined by “and” are separate entries in the source; they are usually repeats but may differ in a detail not shown here. Equal values may be shown once.

As a reminder, the stoichiometry N is a count of units in the complex or per binding partner.

Take “naïve Hsp60 (human Hsp60 with its mitochondrial import signal) (from UniProt P10809 27-573) (natural protein)”: the stoichiometry N in experiment [1] is 7 and 14; in experiment [2], 7 and 14; in experiment [3], 14; in experiment [4], 7 and 14; in experiment [5], 7 and 14.
